In series [1] the test system is intracellular tyrosine phosphorylation in HepG2 cells. As to the kind of experiment: Total intracellular tyrosine phosphorylation in HepG2 cells (antibody 4G10). In kind it is cell-based, human. To be noted: HepG2, partially purified mLeg1 vs no addition. On the procedure:
18.1 Partially purified mLeg1 was added to the HepG2 cell medium to culture the HepG2 cells, and then total protein was extracted.
18.2 The phosphorylation level of the total intracellular tyrosine was detected through the tyrosine phosphorylation antibody 4G10 (Millipore, 05-321).

The next series has as its target T1, EGFR (Mus musculus, UniProt Q01279).
T1 construct: from tissue; host or cells: liver of mLeg1^Δ/Δ mice
As to the kind of experiment: Co-immunoprecipitation of mLeg1 and EGFR in cells isolated from liver homogenate. It is filed as binding. The conditions noted are these: liver cells incubated at 4° C. with crosslinking agent DSP. The protocol: Since the reaction of mLeg1 activating EGFR is very short and the EGFR will be degraded soon after being activated, the inventors of the present disclosure used mLeg1 to incubate the liver cells at 4° C., and simultaneously added a crosslinking agent DSP thereto to stabilize the interaction between mLeg1 and its potential interacting protein, and then washed mLeg1 and lysed the liver cells using NP40 lysate for co-immunoprecipitation. The experimental method was as follows.
21.1 Antibody crosslinking: 30 μl of proteinA/G (beyotime Cat. No. P2012) was centrifuged at a low speed (500-1000 g) to remove the supernatant, and then washed twice using 4° C. pre-chilled PBS, then added with mLeg1 antibody (20 μg of antibody were dissolved in 1×100 μl PBS) for incubation at room temperature for 30 minutes, and then centrifuged to remove the supernatant. The beads were washed three times with 300 μl of PBS, then incubated with 50 μl of DSS solution (5 μl 10×PBS, 36 μl H2O, 9 μl 2.5 mM DSS (Thermo, Cat. NO. 21655)) for 50 minutes at room temperature. After centrifugation to remove supernatant, the beads were washed three times with 50 μl of 100 mM pH 2.2 glycine, washed twice with 300 μl of PBS containing 1% NP40, and finally washed once with 300 μl of PBS. […]
21.5 The protein pulled down by the mLeg1 antibody was detected by Western blot.

Series [2] has as its system Akt phosphorylation of the HepG2 cells. Put plainly: Akt phosphorylation of HepG2 cells incubated with mLeg1 protein partially purified from salivary glands (Western blot). In kind it is cell-based, human. On the procedure:
16.1.1 The salivary glands of two to three wild-type mice were harvested and rinsed in the pre-cooled PBS buffer, minced into fine pieces with scissors, and then transferred to a tissue homogenizer, added with 4 ml of lysate buffer (50 mM Tris-Hcl, pH 8.0, 150 mM NaCl, 0.5% NP40, 2× complete), fully homogenized on ice by pipetting through a 23G needle repeatedly, incubated for 30 minutes at 4° C. in a vertical shaker, and then centrifuged at 12000 g at 4° C. for 15 minutes to collect the supernatant.
16.1.2 The supernatant was passed through a sepharose 6B gel filtration column at a constant speed at 4° C., wherein the PBS buffer was used for elution, and different eluted components were separately collected by 4 ml per tube.
16.1.3 The content of mLeg1 in each tube was detected by Western blot. The tube with the highest mLeg1 content was taken as partially purified mLeg1, and the concentration of mLeg1 protein was estimated using the recombinantly-expressed mLeg1 protein in Escherichia coli as a reference, for subsequent experiments.
16.1.4 The partially purified mLeg1 protein was diluted to different concentrations (3.14×10^−2 ng/0.314 ng/μl and 3.14 ng/μl), and the different concentrations of mLeg1 protein were added to HepG2 culture medium respectively to culture HepG2, followed by incubation at 37° C. for 20 minutes, then total protein was extracted (as to the method of extraction, reference can be made to step 13.2), and Akt phosphorylation level at the different concentrations was detected by Western blot (referring to step 14.3, anti-p-Akt antibody (S473, Cell signaling #4060P) was selected as the corresponding antibody, and the dilution ratio was 1:1000).
16.2.1 mLeg1 protein-enriched components from wild-type mice and from mLeg1^Δ/Δ mice were extracted respectively. […]
16.2.3 The Akt phosphorylation level at different concentrations was detected by Western blot (reference can be made to step 13.2 for details, anti-p-Akt antibody (S473, Cell signaling #4060P) was selected as the corresponding antibody, and the dilution ratio in use was 1:1000).
(Immunoblotting shows a protein as a band on a membrane.)

A short description of series [3]: mLeg1 protein in liver of mLeg1Δ/Δ mice after intragastric administration (immunoprecipitation). It is filed as in vivo, mouse. The protocol:
22.1 The column chromatography partially purified mLeg1 protein was intragastrically administered to the mLeg1^Δ/Δ mice at 50 ng of mLeg1 per gram of body weight of the mice.
22.2 The mice were sacrificed at different time points (0, 10, 20, 40, 60 min) after intragastric administration and liver samples were collected, an immunoprecipitation experiment was conducted to pull down mLeg1 protein (if there is any) and its interacting protein in the liver by using mLeg1 antibodies Reference may be made to steps 21.2-21.5.

B1: mLeg1 protein: mouse secretory protein (SEQ ID NO: 2) encoded by mLeg1 gene, partially purified from salivary glands by column chromatography (protein, listed as Mus musculus)
chain: MAVLASWVWVLAGCFCAAVAEVSDSSDPYPPLWEDSPEQLSDYMMEDGNYIINPWVYTDRMGMYRILLEETAMYFAKYGPENEQNLLWGLPLQFGWQYQSGRLADPTGMTDCGNELNESLCVSVDSWWADINYYLSVIPFLAAVDSGITGISPNQITILPPPKDQMRFCYNVSDCQSAVPGTMNRWRDFFQYMQLNSSDFDGLLNYLWEAHASSLDYPTSAFGDRYNFYSEKEANFEENWAIAVNYLAAARLPTTQNRTYSFQRGLPPRVLVDTDIAPFIPDFTPLQNEVLVSLKLLGDTDRNSGSLSLTLWENLMSTKLARTLFLKAFEEFLATSS
modifications: partially purified
For the molecule B1, the “phosphorylation level of the intracellular tyrosine” value in series [1] was “far higher than that of the control group”. Also, the “interaction with EGFR (pull-down by mLeg1 antibody)” value with EGFR was “EGFR could be co-precipitated”. In addition, in series [2] (HepG2, 37° C. 20 minutes, 3.14×10^−2, 0.314 and 3.14 ng/μl), the “induction of Akt phosphorylation” value is “could induce Akt phosphorylation”. Moreover, the “level of partially purified mLeg1 able to induce Akt phosphorylation of the HepG2 cells” value in series [2] (HepG2, 20 minutes) is reported as “nanogram levels”. In addition, in series [2] (HepG2, 20 minutes, compared with corresponding components of mLeg1Δ/Δ salivary glands), the “ability to induce Akt phosphorylation” value is “significantly higher”. Besides, the “mLeg1 in the liver” value in series [3] (40 minutes and 60 minutes after intragastric administration) is recorded as “decreased”. Further, the “time at which the amount of mLeg1 protein in the liver reached the maximum value” in series [3] (mLeg1Δ/Δ mice, 50 ng per gram of body weight, intragastric) was 20 min.
